T1: Hof1, Q05080
T1 sequence (Q05080 590-669, looked up): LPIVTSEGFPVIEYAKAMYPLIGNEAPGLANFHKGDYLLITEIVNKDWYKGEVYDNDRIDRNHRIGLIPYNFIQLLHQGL

T2: Fus1, P11710
T2 sequence (P11710 432-512, looked up): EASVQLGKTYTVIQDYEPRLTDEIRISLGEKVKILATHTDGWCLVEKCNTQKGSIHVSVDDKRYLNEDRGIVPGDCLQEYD

T3: Pex13, P80667
T3 sequence (P80667 295-386, looked up): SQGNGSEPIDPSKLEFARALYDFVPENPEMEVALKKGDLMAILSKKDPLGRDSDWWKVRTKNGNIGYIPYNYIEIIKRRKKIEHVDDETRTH

T4: Lsb1, P53281
T4 sequence (P53281 45-122, looked up): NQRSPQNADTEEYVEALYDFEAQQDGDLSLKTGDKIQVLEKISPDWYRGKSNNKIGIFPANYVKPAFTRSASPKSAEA

T5: Bzz1-2, P38822
T5 sequence (P38822 568-633, looked up): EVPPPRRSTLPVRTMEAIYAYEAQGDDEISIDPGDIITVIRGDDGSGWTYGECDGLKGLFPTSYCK

T6: Nbp2, Q12163
T6 sequence (Q12163 103-180, looked up): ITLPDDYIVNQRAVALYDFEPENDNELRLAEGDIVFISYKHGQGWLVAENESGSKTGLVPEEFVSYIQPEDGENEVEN

T7: Lsb4, P32793
T7 sequence (P32793 402-468, looked up): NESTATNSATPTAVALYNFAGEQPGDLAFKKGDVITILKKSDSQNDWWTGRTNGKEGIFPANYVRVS

T8: Lsb3, P43603
T8 sequence (P43603 385-451, looked up): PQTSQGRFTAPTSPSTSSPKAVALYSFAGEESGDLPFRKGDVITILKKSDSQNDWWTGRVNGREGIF

T9: Boi1, P38041
T9 sequence (P38041 1-86, looked up): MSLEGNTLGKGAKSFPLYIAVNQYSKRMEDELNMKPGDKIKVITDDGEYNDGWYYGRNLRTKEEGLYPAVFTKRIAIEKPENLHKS

T10: Cyk3, Q07533
T10 sequence (Q07533 1-83, looked up): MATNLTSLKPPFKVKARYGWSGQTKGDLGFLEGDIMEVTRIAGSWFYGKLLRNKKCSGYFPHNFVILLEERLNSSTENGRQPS

T11: Hse1, P38753
T11 sequence (P38753 208-285, looked up): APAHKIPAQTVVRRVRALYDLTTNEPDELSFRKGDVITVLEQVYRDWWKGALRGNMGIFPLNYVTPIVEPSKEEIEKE

T12: Abp1, P15891
T12 sequence (P15891 535-592, looked up): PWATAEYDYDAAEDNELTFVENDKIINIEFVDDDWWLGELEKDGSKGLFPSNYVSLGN

T13: Myo5, Q04439
T13 sequence (Q04439 1072-1160, looked up): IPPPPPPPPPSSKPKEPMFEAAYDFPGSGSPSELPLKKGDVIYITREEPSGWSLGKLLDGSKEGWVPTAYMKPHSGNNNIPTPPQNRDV

T14: Boi2, P39969
T14 sequence (P39969 32-116, looked up): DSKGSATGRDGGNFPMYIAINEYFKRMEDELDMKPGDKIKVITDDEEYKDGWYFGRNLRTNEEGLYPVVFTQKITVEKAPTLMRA

T15: Cdc25, P04821
T15 sequence (P04821 50-136, looked up): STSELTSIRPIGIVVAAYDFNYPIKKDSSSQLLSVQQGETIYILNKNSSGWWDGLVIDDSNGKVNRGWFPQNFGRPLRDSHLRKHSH

T16: Bbc1, P47068
T16 sequence (P47068 1-78, looked up): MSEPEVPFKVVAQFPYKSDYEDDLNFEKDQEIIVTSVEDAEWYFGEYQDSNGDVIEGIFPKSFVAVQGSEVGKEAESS

T17: Sla1-2, P32790
T17 sequence (P32790 60-140, looked up): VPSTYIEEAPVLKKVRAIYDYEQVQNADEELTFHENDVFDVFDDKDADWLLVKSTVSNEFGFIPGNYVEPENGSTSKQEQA

T18: Bud14, P27637
T18 sequence (P27637 247-328, looked up): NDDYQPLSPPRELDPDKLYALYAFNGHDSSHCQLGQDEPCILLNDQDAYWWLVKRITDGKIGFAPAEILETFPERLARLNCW

T19: Pin3, Q06449
T19 sequence (Q06449 53-122, looked up): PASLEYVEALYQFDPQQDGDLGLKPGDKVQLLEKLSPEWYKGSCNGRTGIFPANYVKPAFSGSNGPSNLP

T20: Sla1-3, P32790
T20 sequence (P32790 344-424, looked up): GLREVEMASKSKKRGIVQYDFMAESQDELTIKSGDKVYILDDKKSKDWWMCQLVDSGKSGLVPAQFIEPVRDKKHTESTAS

T21: Bzz1-1, P38822
T21 sequence (P38822 478-572, looked up): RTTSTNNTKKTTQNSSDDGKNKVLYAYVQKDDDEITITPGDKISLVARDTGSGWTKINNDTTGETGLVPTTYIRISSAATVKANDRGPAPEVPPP


Molecular target: T1, Hof1, Q05080
Assay: SPOT array
Conditions: median of control spots 4086

SKSRLLIELPEGFFT and GKKVRPLLVLLLSRA are the same in SPOT intensity: 0 for the first, 0 for the second.

Work on RRTRLRPPTPLSQLL yielded an SPOT intensity of 5.

Molecular target: T2, Fus1, P11710
Assay: SPOT array
Conditions: median of control spots 1200

First: SKSRLLIELPEGFFT
Second: GKKVRPLLVLLLSRA
The SPOT intensity of the first is lower: 0 for the first, 4 for the second.

Binder RRTRLRPPTPLSQLL has an SPOT intensity of 17.

Molecular target: Sho1, P40073
Assay: SPOT array
Conditions: median of control spots 1148

Sequence of Sho1, P40073 (P40073 287-367): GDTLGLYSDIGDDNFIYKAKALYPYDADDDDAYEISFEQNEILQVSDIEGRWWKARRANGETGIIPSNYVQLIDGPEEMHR

First: SKSRLLIELPEGFFT
Second: GKKVRPLLVLLLSRA
The SPOT intensity of the first is lower: 10 for the first, 51 for the second.

For RRTRLRPPTPLSQLL, the SPOT intensity was 39.

Molecular target: Bem1-2, P29366
Assay: SPOT array
Conditions: median of control spots 4347

Sequence of Bem1-2, P29366 (P29366 139-227): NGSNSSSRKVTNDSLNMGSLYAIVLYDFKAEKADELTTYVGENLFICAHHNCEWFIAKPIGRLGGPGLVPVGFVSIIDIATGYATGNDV

SKSRLLIELPEGFFT and GKKVRPLLVLLLSRA are the same in SPOT intensity: 0 for the first, 0 for the second.

With RRTRLRPPTPLSQLL the SPOT intensity was 15.

Molecular target: T3, Pex13, P80667
Assay: SPOT array
Conditions: median of control spots 1341

First: SKSRLLIELPEGFFT
Second: GKKVRPLLVLLLSRA
The SPOT intensity of the first is lower: 14 for the first, 19 for the second.

Binder RRTRLRPPTPLSQLL has an SPOT intensity of 4.

Molecular target: T4, Lsb1, P53281
Assay: SPOT array
Conditions: median of control spots 388

SKSRLLIELPEGFFT and GKKVRPLLVLLLSRA are the same in SPOT intensity: 0 for the first, 0 for the second.

Binder RRTRLRPPTPLSQLL has an SPOT intensity of 215.

Molecular target: T5, Bzz1-2, P38822
Assay: SPOT array
Conditions: median of control spots 4538

SKSRLLIELPEGFFT and GKKVRPLLVLLLSRA are the same in SPOT intensity: 0 for the first, 0 for the second.

For RRTRLRPPTPLSQLL, the SPOT intensity was 0.

Molecular target: T6, Nbp2, Q12163
Assay: SPOT array
Conditions: median of control spots 357

Going from SKSRLLIELPEGFFT to GKKVRPLLVLLLSRA, the SPOT intensity rises from 0 to 10.

For RRTRLRPPTPLSQLL, the SPOT intensity was 11.

Molecular target: T7, Lsb4, P32793
Assay: SPOT array
Conditions: median of control spots 397

Compared with SKSRLLIELPEGFFT, GKKVRPLLVLLLSRA is higher in SPOT intensity: 0 for the first, 2 for the second.

RRTRLRPPTPLSQLL showed an SPOT intensity of 1.

Molecular target: T8, Lsb3, P43603
Assay: SPOT array
Conditions: median of control spots 406

Going from SKSRLLIELPEGFFT to GKKVRPLLVLLLSRA, the SPOT intensity rises from 0 to 6.

Binder RRTRLRPPTPLSQLL has an SPOT intensity of 2.

Molecular target: T9, Boi1, P38041
Assay: SPOT array
Conditions: median of control spots 1162

Going from SKSRLLIELPEGFFT to GKKVRPLLVLLLSRA, the SPOT intensity rises from 1 to 14.

With RRTRLRPPTPLSQLL the SPOT intensity was 0.

Molecular target: Bem1-1, P29366
Assay: SPOT array
Conditions: median of control spots 4282

Sequence of Bem1-1, P29366 (P29366 55-141): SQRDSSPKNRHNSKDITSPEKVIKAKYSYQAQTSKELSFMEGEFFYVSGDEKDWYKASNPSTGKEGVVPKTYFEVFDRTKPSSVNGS

SKSRLLIELPEGFFT and GKKVRPLLVLLLSRA are the same in SPOT intensity: 0 for the first, 0 for the second.

In the case of RRTRLRPPTPLSQLL, the SPOT intensity is reported as 2.

Molecular target: Myo3, P36006
Assay: SPOT array
Conditions: median of control spots 468

Going from SKSRLLIELPEGFFT to GKKVRPLLVLLLSRA, the SPOT intensity rises from 0 to 7.

RRTRLRPPTPLSQLL showed an SPOT intensity of 6.

Molecular target: T10, Cyk3, Q07533
Assay: SPOT array
Conditions: median of control spots 1451

SKSRLLIELPEGFFT and GKKVRPLLVLLLSRA are the same in SPOT intensity: 0 for the first, 0 for the second.

Work on RRTRLRPPTPLSQLL yielded an SPOT intensity of 7.

Molecular target: T11, Hse1, P38753
Assay: SPOT array
Conditions: median of control spots 1727

SKSRLLIELPEGFFT and GKKVRPLLVLLLSRA are the same in SPOT intensity: 0 for the first, 0 for the second.

Binder RRTRLRPPTPLSQLL has an SPOT intensity of 17.

Molecular target: T12, Abp1, P15891
Assay: SPOT array
Conditions: median of control spots 935

Compared with SKSRLLIELPEGFFT, GKKVRPLLVLLLSRA is higher in SPOT intensity: 0 for the first, 37 for the second.

In the case of RRTRLRPPTPLSQLL, the SPOT intensity is reported as 103.

Molecular target: T13, Myo5, Q04439
Assay: SPOT array
Conditions: median of control spots 471

First: SKSRLLIELPEGFFT
Second: GKKVRPLLVLLLSRA
The SPOT intensity of the first is lower: 0 for the first, 1 for the second.

For RRTRLRPPTPLSQLL, the SPOT intensity was 0.

Molecular target: T14, Boi2, P39969
Assay: SPOT array
Conditions: median of control spots 1161

Compared with SKSRLLIELPEGFFT, GKKVRPLLVLLLSRA is higher in SPOT intensity: 1 for the first, 4 for the second.

RRTRLRPPTPLSQLL was tested, and the SPOT intensity was 0.

Molecular target: T15, Cdc25, P04821
Assay: SPOT array
Conditions: median of control spots 969

Compared with SKSRLLIELPEGFFT, GKKVRPLLVLLLSRA is higher in SPOT intensity: 66 for the first, 132 for the second.

In the case of RRTRLRPPTPLSQLL, the SPOT intensity is reported as 24.

Molecular target: T16, Bbc1, P47068
Assay: SPOT array
Conditions: median of control spots 796

Compared with SKSRLLIELPEGFFT, GKKVRPLLVLLLSRA is higher in SPOT intensity: 0 for the first, 67 for the second.

For RRTRLRPPTPLSQLL, the SPOT intensity was 348.

Molecular target: T17, Sla1-2, P32790
Assay: SPOT array
Conditions: median of control spots 712

SKSRLLIELPEGFFT and GKKVRPLLVLLLSRA are the same in SPOT intensity: 0 for the first, 0 for the second.

Binder RRTRLRPPTPLSQLL has an SPOT intensity of 0.

Molecular target: T18, Bud14, P27637
Assay: SPOT array
Conditions: median of control spots 956

First: SKSRLLIELPEGFFT
Second: GKKVRPLLVLLLSRA
The SPOT intensity of the first is lower: 1 for the first, 9 for the second.

For RRTRLRPPTPLSQLL, the SPOT intensity was 24.

Molecular target: T19, Pin3, Q06449
Assay: SPOT array
Conditions: median of control spots 2171

First: SKSRLLIELPEGFFT
Second: GKKVRPLLVLLLSRA
The SPOT intensity of the first is higher: 4 for the first, 0 for the second.

RRTRLRPPTPLSQLL showed an SPOT intensity of 9.

Molecular target: T20, Sla1-3, P32790
Assay: SPOT array
Conditions: median of control spots 5475

SKSRLLIELPEGFFT and GKKVRPLLVLLLSRA are the same in SPOT intensity: 0 for the first, 0 for the second.

For RRTRLRPPTPLSQLL, the SPOT intensity was 35.

Molecular target: Rvs167, P39743
Assay: SPOT array
Conditions: median of control spots 2707

Sequence of Rvs167, P39743 (P39743 419-482): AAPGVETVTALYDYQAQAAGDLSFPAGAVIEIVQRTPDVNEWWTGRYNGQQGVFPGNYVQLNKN

SKSRLLIELPEGFFT and GKKVRPLLVLLLSRA are the same in SPOT intensity: 0 for the first, 0 for the second.

For RRTRLRPPTPLSQLL, the SPOT intensity was 0.

Molecular target: T21, Bzz1-1, P38822
Assay: SPOT array
Conditions: median of control spots 4446

Going from SKSRLLIELPEGFFT to GKKVRPLLVLLLSRA, the SPOT intensity falls from 1 to 0.

RRTRLRPPTPLSQLL was tested, and the SPOT intensity was 2.

Molecular target: GST
Assay: SPOT array
Conditions: median of control spots 978

SKSRLLIELPEGFFT and GKKVRPLLVLLLSRA are the same in SPOT intensity: 0 for the first, 0 for the second.

RRTRLRPPTPLSQLL was tested, and the SPOT intensity was 5.
